Laboratory results from patent US20210340217A1, “NOVEL PEPTIDES AND COMBINATION OF PEPTIDES FOR USE IN IMMUNOTHERAPY AGAINST OVARIAN CANCER AND OTHER CANCERS” (Immatics Biotechnologies GmbH, priority 2017, published 2021).

Molecular target: HLA-A*02:01 (Homo sapiens, UniProt P04439, D140Y/D185E/D98H/E176V/E277Q/G131W/G231S/I119V/I121R/I166T/I218V/L300P/L318F/N151K/N90K/P208A/P217A/Q86G/Q94H/R138H/R169H/T345S)
Test: MHC binding assay (UV-ligand exchange, beta2m ELISA)
Details: peptide exchange yield
How it was run: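 Peptide–MHC complexes formed by UV-induced exchange of a UV-cleavable peptide for the test peptide. Exchange yield measured by streptavidin-capture ELISA detecting β2m (HRP anti-β2m, TMB, A450) on 100-fold diluted samples. Quantified against refolded HLA-A*02:01/MLA-001 standards (15-500 ng/ml).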

Row | Substance | Peptide exchange
1 | 63 (MMEEMIFNL; listed as Homo sapiens) [compound 63] | ++++ (>75% = ++++)
2 | 7 (ALQAFEFRV; listed as Homo sapiens) [compound 7] | ++++ (>75% = ++++)
3 | 62 (KVLGVNVML; listed as Homo sapiens) [compound 62] | ++++ (>75% = ++++)
4 | 234 (GVATRVDAI; listed as Homo sapiens) [compound 234] | ++ (>20% = ++)
5 | 6 (SLGKHTVAL; listed as Homo sapiens) [compound 6] | +++ (>50 = +++)
6 | 244 (DTDSSVHVQV; listed as Homo sapiens) [compound 244] | + (>10% = +)
7 | 243 (YASEGVKQV; listed as Homo sapiens) [compound 243] | +++ (>50 = +++)
8 | 232 (TISSLTHEL; listed as Homo sapiens) [compound 232] | ++++ (>75% = ++++)
9 | 241 (RQPNILVHL; listed as Homo sapiens) [compound 241] | ++ (>20% = ++)
10 | 228 (RLWDWVPLA; listed as Homo sapiens) [compound 228] | ++++ (>75% = ++++)
11 | 8 (YLVTKVVAV; listed as Homo sapiens) [compound 8] | ++++ (>75% = ++++)
12 | 223 (FAHHGRSL; listed as Homo sapiens) [compound 223] | + (>10% = +)
13 | 216 (IMFDDAIERA; listed as Homo sapiens) [compound 216] | ++++ (>75% = ++++)
14 | 70 (VLQGLLRSL; listed as Homo sapiens) [compound 70] | ++++ (>75% = ++++)
15 | 69 (TTYEGSITV; listed as Homo sapiens) [compound 69] | ++++ (>75% = ++++)
16 | 220 (RMTTQLLLL; listed as Homo sapiens) [compound 220] | +++ (>50 = +++)
17 | 222 (ALMRLIGCPL; listed as Homo sapiens) [compound 222] | ++++ (>75% = ++++)

Row | Substance | Peptide exchange
18 | 4 (ALFKAWAL; listed as Homo sapiens) [compound 4] | ++++ (>75% = ++++)
19 | 68 (KLFDTQQFL; listed as Homo sapiens) [compound 68] | ++++ (>75% = ++++)
20 | 3 (ALIYNLVGI; listed as Homo sapiens) [compound 3] | ++++ (>75% = ++++)
21 | 9 (VLLAGFKPPL; listed as Homo sapiens) [compound 9] | + (>10% = +)
22 | 66 (GLLQELSSI; listed as Homo sapiens) [compound 66] | ++++ (>75% = ++++)
23 | 64 (FLDPDRHFL; listed as Homo sapiens) [compound 64] | ++++ (>75% = ++++)
24 | 225 (SVFAHPRKL; listed as Homo sapiens) [compound 225] | +++ (>50 = +++)
25 | 1 (MIPTFTALL; listed as Homo sapiens) [compound 1] | +++ (>50 = +++)
26 | 5 (RLLDFINVL; listed as Homo sapiens) [compound 5] | ++++ (>75% = ++++)
27 | 236 (SAIPFSMTL; listed as Homo sapiens) [compound 236] | +++ (>50 = +++)
28 | 75 (KVVSVLYNV; listed as Homo sapiens) [compound 75] | ++++ (>75% = ++++)
29 | 61 (YMVHIQVTL; listed as Homo sapiens) [compound 61] | ++++ (>75% = ++++)
30 | 227 (YTFRYPLSL; listed as Homo sapiens) [compound 227] | +++ (>50 = +++)
31 | 72 (YLTDLQVSL; listed as Homo sapiens) [compound 72] | ++++ (>75% = ++++)
32 | 67 (SLLLPSIFL; listed as Homo sapiens) [compound 67] | ++++ (>75% = ++++)
33 | 219 (PLPRPGAVL; listed as Homo sapiens) [compound 219] | + (>10% = +)
